Laboratory results reported in US20110263454A1, “Methods of Identifying Functional Characteristics of Promoters, Transcription Modifying Proteins and Transcription Modulating Agents” (Salk Institute for Biological Studies, priority 2008, published 2011).

B1: RARg: Retinoic acid receptor γ (NR1B3), nuclear hormone receptor cDNA driver (protein, UniProt P13631 1-454, looked up)
Retinoic acid receptor gamma: MATNKERLFAAGALGPGSGYPGAGFPFAFPGALRGSPPFEMLSPSFRGLGQPDLPKEMASLSVETQSTSSEEMVPSSPSPPPPPRVYKPCFVCNDKSSGYHYGVSSCEGCKGFFRRSIQKNMVYTCHRDKNCIINKVTRNRCQYCRLQKCFEVGMSKEAVRNDRNKKKKEVKEEGSPDSYELSPQLEELITKVSKAHQETFPSLCQLGKYTTNSSADHRVQLDLGLWDKFSELATKCIIKIVEFAKRLPGFTGLSIADQITLLKAACLDILMLRICTRYTPEQDTMTFSDGLTLNRTQMHNAGFGPLTDLVFAFAGQLLPLEMDDTETGLLSAICLICGDRMDLEEPEKVDKLQEPLLEALRLYARRRRPSQPYMFPRMLMKITDLRGISTKGAERAITLKMEIPGPMPPLIREMLENPEMFEDDSSQPGPHPNASSEDEVPGGQGKGGLKSPA
B2: FXR: Farnesoid X Receptor (NR1H4), cDNA driver (protein, UniProt Q96RI1 1-486, looked up)
Bile acid receptor: MVMQFQGLENPIQISPHCSCTPSGFFMEMMSMKPAKGVLTEQVAGPLGQNLEVEPYSQYSNVQFPQVQPQISSSSYYSNLGFYPQQPEEWYSPGIYELRRMPAETLYQGETEVAEMPVTKKPRMGASAGRIKGDELCVVCGDRASGYHYNALTCEGCKGFFRRSITKNAVYKCKNGGNCVMDMYMRRKCQECRLRKCKEMGMLAECMYTGLLTEIQCKSKRLRKNVKQHADQTVNEDSEGRDLRQVTSTTKSCREKTELTPDQQTLLHFIMDSYNKQRMPQEITNKILKEEFSAEENFLILTEMATNHVQVLVEFTKKLPGFQTLDHEDQIALLKGSAVEAMFLRSAEIFNKKLPSGHSDLLEERIRNSGISDEYITPMFSFYKSIGELKMTQEEYALLTAIVILSPDRQYIKDREAVEKLQEPLLDVLQKLCKIHQPENPQHFACLLGRLTELRTFNHHHAEMLMSWRVNDHKFTPLLCEIWDVQ
B3: RARa: Retinoic acid receptor α (NR1B1), nuclear hormone receptor cDNA driver (protein, UniProt P10276 1-462, looked up)
Retinoic acid receptor alpha: MASNSSSCPTPGGGHLNGYPVPPYAFFFPPMLGGLSPPGALTTLQHQLPVSGYSTPSPATIETQSSSSEEIVPSPPSPPPLPRIYKPCFVCQDKSSGYHYGVSACEGCKGFFRRSIQKNMVYTCHRDKNCIINKVTRNRCQYCRLQKCFEVGMSKESVRNDRNKKKKEVPKPECSESYTLTPEVGELIEKVRKAHQETFPALCQLGKYTTNNSSEQRVSLDIDLWDKFSELSTKCIIKTVEFAKQLPGFTTLTIADQITLLKAACLDILILRICTRYTPEQDTMTFSDGLTLNRTQMHNAGFGPLTDLVFAFANQLLPLEMDDAETGLLSAICLICGDRQDLEQPDRVDMLQEPLLEALKVYVRKRRPSRPHMFPKMLMKITDLRSISAKGAERVITLKMEIPGSMPPLIQEMLENSEGLDTLSGQPGGGGRDGGGLAPPPGSCSPSLSPSSNRSSPATHSP
B4: PPARd: Peroxisome proliferator activated receptor δ (NR1C2), cDNA driver (protein, UniProt Q03181 1-441, looked up)
Peroxisome …: MEQPQEEAPEVREEEEKEEVAEAEGAPELNGGPQHALPSSSYTDLSRSSSPPSLLDQLQMGCDGASCGSLNMECRVCGDKASGFHYGVHACEGCKGFFRRTIRMKLEYEKCERSCKIQKKNRNKCQYCRFQKCLALGMSHNAIRFGRMPEAEKRKLVAGLTANEGSQYNPQVADLKAFSKHIYNAYLKNFNMTKKKARSILTGKASHTAPFVIHDIETLWQAEKGLVWKQLVNGLPPYKEISVHVFYRCQCTTVETVRELTEFAKSIPSFSSLFLNDQVTLLKYGVHEAIFAMLASIVNKDGLLVANGSGFVTREFLRSLRKPFSDIIEPKFEFAVKFNALELDDSDLALFIAAIILCGDRPGLMNVPRVEAIQDTILRALEFHLQANHPDAQYLFPKLLQKMADLRQLVTEHAQMMQRIKKTETETSLHPLLQEIYKDMY
B5: RARb: Retinoic acid receptor β (NR1B2), nuclear hormone receptor cDNA driver (protein, UniProt P10826 1-455, looked up)
Retinoic acid receptor beta: MTTSGHACPVPAVNGHMTHYPATPYPLLFPPVIGGLSLPPLHGLHGHPPPSGCSTPSPATIETQSTSSEELVPSPPSPLPPPRVYKPCFVCQDKSSGYHYGVSACEGCKGFFRRSIQKNMIYTCHRDKNCVINKVTRNRCQYCRLQKCFEVGMSKESVRNDRNKKKKETSKQECTESYEMTAELDDLTEKIRKAHQETFPSLCQLGKYTTNSSADHRVRLDLGLWDKFSELATKCIIKIVEFAKRLPGFTGLTIADQITLLKAACLDILILRICTRYTPEQDTMTFSDGLTLNRTQMHNAGFGPLTDLVFTFANQLLPLEMDDTETGLLSAICLICGDRQDLEEPTKVDKLQEPLLEALKIYIRKRRPSKPHMFPKILMKITDLRSISAKGAERVITLKMEIPGSMPPLIQEMLENSEGHEPLTPSSSGNTAEHSPSISPSSVENSGVSQSPLVQ

Key:
hPOMC promoter = test: NHR-promoter luciferase screen, hPOMC promoter; assay type: cell-based, human; conditions: for Luc. act., normalized to lacZ / Normalized Luc. act., normalized to control: hPOMC promoter, HR/ligand component; for hPOMC promoter reporter activity: transcription factor +/- ligand, control = 1.00
Summary of the method: (§1)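 CV-1 cells were co-transfected with 50 ng NHR (homodimer or NHR/RXR heterodimer), 100 ng promoter-luciferase construct and 50 ng LacZ. Luciferase was normalized to LacZ and to a no-NHR/no-ligand control.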

mNPY promoter = test: NHR-promoter luciferase screen, mNPY promoter; assay type: cell-based, mouse; conditions: for Results of assays of transcription factor (+/- ligand) with mNPY: Table 6d, luciferase activity relative to control (control = 1.00); for Luc. act., normalized to lacZ / Normalized Luc. act., normalized to control: mNPY promoter, HR component with or without ligand; for Normalized Luc. act., normalized to control: relative to control
Summary of the method: as §1

hMDR1 promoter = test: NHR-promoter luciferase screen, hMDR1 promoter; assay type: cell-based, human; conditions: for Luc. act., normalized to lacZ / Normalized Luc. act., normalized to control: MDR1 promoter, HR/ligand component; for hMDR1 promoter reporter activity: transcription factor +/- ligand, control = 1.00
Summary of the method: as §1

hCYP3A4 promoter = test: NHR-promoter luciferase screen, hCYP3A4 promoter; assay type: cell-based, human; conditions: for Luc. act., normalized to lacZ / Normalized Luc. act., normalized to control: CYP3A4 promoter, HR/ligand component; for hCYP3A4 promoter reporter activity: transcription factor +/- ligand, control = 1.00
Summary of the method: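 CV-1 cells co-transfected with NHR homodimer or NHR/RXR heterodimer (pcDNA3.1, C-terminal V5H6 tag), promoter-luciferase construct and LacZ transfection control. Orphan receptors screened without ligand. Luciferase normalized to LacZ and to no-NHR/no-ligand control.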

RevErba promoter = test: NHR-promoter luciferase screen, RevErba (RVRa) promoter; assay type: cell-based; set-up: key to mRevErba promoter reporter activity / Normalized Luc. act., normalized to control: luciferase activity normalized to lacZ and to control (no NHR/ligand); conditions: for Luc. act., normalized to lacZ / Normalized Luc. act., normalized to control: HR component without or with ligand; for normalized Luc. act. on a logarithmic scale (column without head, Table 33): log10 of activity normalized to control; for mRevErba promoter reporter activity: transcription factor +/- ligand, control = 1.00
Summary of the method: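 CV-1 cells co-transfected with NHR (pcDNA3.1, C-terminal V5H6 tag) as homodimer or RXR heterodimer, RevErbα promoter–luciferase reporter and LacZ transfection control; ligand added where applicable. Luciferase normalized to LacZ and to no-NHR/no-ligand control.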

Molecule	Luc. act., normalized to lacZ (hPOMC promoter)	Normalized Luc. act., normalized to control (hPOMC promoter)	hPOMC promoter reporter activity (hPOMC promoter)	Results of assays of transcription factor (+/- ligand) with mNPY (mNPY promoter)	Luc. act., normalized to lacZ (mNPY promoter)	Normalized Luc. act., normalized to control (mNPY promoter)	Luc. act., normalized to lacZ (hMDR1 promoter)	Normalized Luc. act., normalized to control (hMDR1 promoter)	hMDR1 promoter reporter activity (hMDR1 promoter)	Luc. act., normalized to lacZ (hCYP3A4 promoter)	Normalized Luc. act., normalized to control (hCYP3A4 promoter)	hCYP3A4 promoter reporter activity (hCYP3A4 promoter)	Luc. act., normalized to lacZ (RevErba promoter; RVRa promoter)	Normalized Luc. act., normalized to control (RevErba promoter; RVRa promoter)	normalized Luc. act. on a logarithmic scale (column without head, Table 33) (RevErba promoter; RVRa promoter)	mRevErba promoter reporter activity (RevErba promoter)	negative reciprocal of normalized Luc. act. (fold repression; Table 33) (RevErba promoter; RVRa promoter, given only where activity is below control)
B1	3.7	0.9	0.87	1.20	100.5	1.2	0.3	0.8	0.85	4.0	0.9	0.91	39.6	1.4	0.15	1.42	–
B2	2.8	0.6	0.65	0.92	77.7	0.9	0.2	0.6	0.61	4.2	0.9	0.93	31.7	1.1	0.05	1.13	–
B3	3.2	0.7	0.74	1.24	103.8	1.2	0.2	0.7	0.67	4.2	0.9	0.94	34.6	1.2	0.09	1.24	–
B4	3.8	0.9	0.89	0.70	58.5	0.7	0.3	0.9	0.90	5.0	1.1	1.12	25.3	0.9	−0.04	0.90	−1.106
B5	4.3	1.0	1.00	1.17	97.9	1.2	0.3	1.0	0.97	4.6	1.0	1.03	45.6	1.6	0.21	1.63	–
